Source: paper doi:10.1101/2021.08.19.456998, “Structures of the Human SPAK and OSR1 Conserved C-Terminal (CCT) Domains” (bioRxiv, 2021)
Where no end group is shown, it is not given here. The star is where a group is joined. Biotin = O=C1N[C@H]2[C@H](CS[C@H]2CCCCC(=O)*)N1

T1: Biotin-C6-SEEGKPQLVGRFQVTSSK (N-terminally biotinylated 18-mer RFQV peptide derived from WNK4) (human)
T1 construct: With No Lysine kinase 4 (WNK4), 18-mer with the RFQV motif; also called biotinylated 18-mer peptide; biotin 18-mer peptide; source: synthetic peptide, bought: GL Biochem, Shanghai Ltd
T1 peptide: {Biotin-C6}-SEEGKPQLVGRFQVTSSK

B1: 18-mer RFQV peptide derived from WNK4 (SEEGKPQLVGRFQVTSSK), unbiotinylated (peptide)
peptide: SEEGKPQLVGRFQVTSSK
notes: With No Lysine kinase 4 (WNK4), 18-mer with the RFQV motif; also called 18-mer peptide; RFQV 18-mer peptide; source: synthetic peptide, bought: GL Biochem, Shanghai Ltd
B2: cleaved OSR1 (human OSR1 CCT domain, residues 423-527, tags removed with TEV protease) (domain or fragment)
chain: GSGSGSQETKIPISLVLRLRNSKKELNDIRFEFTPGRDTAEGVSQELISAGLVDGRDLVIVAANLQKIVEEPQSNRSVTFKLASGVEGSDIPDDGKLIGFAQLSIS
notes: glycine of the TEV site (ENLYFQ/G) left after cleavage; OSR1, human, CCT domain, residues 423-527; also called cleaved hOSR1-CCT; hOSR1-CCT; source: E. coli BL21-CodonPlus (DE3)-RIL, purified (HisTrap, SEC, TEV cleavage, SEC in HBS EP); not shown: His6, N-terminal, cleaved; AviTag, N-terminal, cleaved

Experiments:
Conditions in all cases: both partners purified
[1] = molecular target: T2, biotin-SPAK (uncleaved human SPAK CCT domain, residues 441-545, biotinylated on the AviTag) (human, biotin on the lysine of the AviTag (…)); assay: grating-coupled interferometry (Creoptix WAVE); traditional multicycle kinetics; biotin-SPAK or biotin-OSR immobilised on streptavidin chip, 18-mer peptide as analyte, 50 µM in 3-fold dilutions (six points); 25°C, HBS EP; one-to-one fit
T2 construct: STE20/SPS1-related proline/alanine-rich kinase (SPAK), human, conserved C-terminal (CCT) domain, residues 441-545; the TEV site was not cut in this form; also called hSPAK-CCT; source: E. coli BL21-CodonPlus (DE3)-RIL, purified (HisTrap, SEC), biotinylated with BirA; not shown: His6, N-terminal, kept; AviTag, N-terminal, kept

[2] = molecular target: T3, biotin-OSR (uncleaved human OSR1 CCT domain, residues 423-527, biotinylated on the AviTag) (human, biotin on the lysine of the AviTag (…)); assay: grating-coupled interferometry (Creoptix WAVE); waveRAPID; biotin-SPAK or biotin-OSR immobilised on streptavidin chip (about 1000 pg/mm^2), 18-mer peptide as analyte at 5 µM; 25°C, HBS EP (10 mM HEPES pH 7.4, 150 mM NaCl, 3 mM EDTA, 0.005% Tween20); 1:1 kinetic model, global fit
T3 construct: Oxidative Stress Responsive 1 (OSR1) kinase, human, conserved C-terminal (CCT) domain, residues 423-527; the TEV site was not cut in this form; also called hOSR1-CCT; hOSR-CCT; source: E. coli BL21-CodonPlus (DE3)-RIL, purified (HisTrap, SEC), biotinylated with BirA; not shown: His6, N-terminal, kept; AviTag, N-terminal, kept

[3] = molecular target: T2, biotin-SPAK (uncleaved human SPAK CCT …); assay: as above
[4] = molecular target: T1, Biotin-C6-SEEGKPQLVGRFQVTSSK …; assay: grating-coupled interferometry (Creoptix WAVE); traditional multicycle kinetics; biotin-C6-18-mer peptide captured on streptavidin chip, cleaved OSR1 as analyte, 25 µM in 1:3 dilutions (six points); 25°C, HBS EP
[5] = molecular target: T1, Biotin-C6-SEEGKPQLVGRFQVTSSK …; assay: grating-coupled interferometry (Creoptix WAVE); waveRAPID; biotin-C6-18-mer peptide captured on streptavidin chip (about 400 pg/mm^2), cleaved SPAK or OSR1 as analyte at 2 µM; 25°C, HBS EP; heterogeneous ligand model for SPAK

T3 sequence (chain, as listed by the source): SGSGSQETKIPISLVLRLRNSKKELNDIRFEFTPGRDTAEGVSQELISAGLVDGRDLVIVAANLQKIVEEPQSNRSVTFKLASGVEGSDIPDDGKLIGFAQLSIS

Binder | Kd [1] | Kd [2] | Kd [3] | Kd [4] | Kd [5]
B1 | 1160 nM | 2500 nM | 1100 nM |  | 
B2 |  |  |  | 6600 nM | 2100 nM
